Results on three molecules are retold here after publication PMC4868709 (2015).

B1: purified C2 domain of CD147 (domain or fragment)
chain: AAGTVFTTVEDLGSKILLTCSLNDSATEVTGHRWLKGGVVLKEDALPGQKTEFKVDSDDQWGEYSCVFLPEPMGTANIQLHG
B2: purified His-tagged Ig-like domains of CD147 (CD147ECP-his) (domain or fragment)
chain: AAGTVFTTVEDLGSKILLTCSLNDSATEVTGHRWLKGGVVLKEDALPGQKTEFKVDSDDQWGEYSCVFLPEPMGTANIQLHGPPRVKAVKSSEHINEGETAMLVCKSESVPPVTDWAWYKITDSEDKALMNGSESRFFVSSSQGRSELHIENLNMEADPGQYRCNGTSSKGSDQAIITLRVRSHLAAL
B3: purified I domain of CD147 (domain or fragment)
chain: PRVKAVKSSEHINEGETAMLVCKSESVPPVTDWAWYKITDSEDKALMNGSESRFFVSSSQGRSELHIENLNMEADPGQYRCNGTSSKGSDQAIIT

The target of the assay is purified Annexin A2 (UniProt P07355 1-339). As to the kind of experiment: SPR. (Surface plasmon resonance follows binding to a sensor surface in real time, without labels.)
Chain of purified Annexin A2 (P07355 whole entry): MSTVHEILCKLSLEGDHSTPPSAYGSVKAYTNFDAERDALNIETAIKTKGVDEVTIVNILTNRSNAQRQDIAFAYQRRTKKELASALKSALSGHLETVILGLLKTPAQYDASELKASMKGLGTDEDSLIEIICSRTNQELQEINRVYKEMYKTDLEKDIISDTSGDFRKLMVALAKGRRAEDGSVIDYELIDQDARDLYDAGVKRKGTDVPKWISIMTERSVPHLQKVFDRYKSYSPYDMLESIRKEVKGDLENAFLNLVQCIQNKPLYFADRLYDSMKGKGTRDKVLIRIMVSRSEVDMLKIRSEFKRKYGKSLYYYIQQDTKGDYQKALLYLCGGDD
With B1, the koff (usually the rate constant with which the complex falls apart) is 1.14 s⁻¹.

On to B2, for which the off-rate constant (koff) was found to be 1.14 s⁻¹.

Consider B3, for which the off-rate (koff) is 0.00307 s⁻¹.
